According to paper doi:10.1101/786475 (bioRxiv, 2019):

What was measured:
Test in all cases: peptide or protein array
[1] = target: T1, Aip1p (spotted on the yeast ProtoArray) (S. cerevisiae, UniProt P46680 1-615)
T1 sequence (looked up): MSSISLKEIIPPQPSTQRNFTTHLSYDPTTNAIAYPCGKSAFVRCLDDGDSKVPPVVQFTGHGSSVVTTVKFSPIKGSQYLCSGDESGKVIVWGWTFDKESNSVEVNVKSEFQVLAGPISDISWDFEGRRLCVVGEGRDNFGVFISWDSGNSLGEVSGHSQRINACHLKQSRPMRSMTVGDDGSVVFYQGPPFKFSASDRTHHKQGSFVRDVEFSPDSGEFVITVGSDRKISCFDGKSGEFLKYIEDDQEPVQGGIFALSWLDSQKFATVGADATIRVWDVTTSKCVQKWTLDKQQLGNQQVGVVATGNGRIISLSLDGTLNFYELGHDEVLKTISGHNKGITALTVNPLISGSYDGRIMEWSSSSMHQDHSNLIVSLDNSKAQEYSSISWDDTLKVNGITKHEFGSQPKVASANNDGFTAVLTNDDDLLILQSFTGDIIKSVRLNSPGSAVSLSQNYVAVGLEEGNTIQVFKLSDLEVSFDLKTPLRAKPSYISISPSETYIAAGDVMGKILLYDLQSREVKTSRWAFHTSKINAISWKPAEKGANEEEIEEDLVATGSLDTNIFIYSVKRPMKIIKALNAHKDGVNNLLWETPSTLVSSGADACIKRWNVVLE

[2] = target: T2, Gln1p (spotted on the yeast ProtoArray) (S. cerevisiae, UniProt P32288 1-370)
T2 sequence (looked up): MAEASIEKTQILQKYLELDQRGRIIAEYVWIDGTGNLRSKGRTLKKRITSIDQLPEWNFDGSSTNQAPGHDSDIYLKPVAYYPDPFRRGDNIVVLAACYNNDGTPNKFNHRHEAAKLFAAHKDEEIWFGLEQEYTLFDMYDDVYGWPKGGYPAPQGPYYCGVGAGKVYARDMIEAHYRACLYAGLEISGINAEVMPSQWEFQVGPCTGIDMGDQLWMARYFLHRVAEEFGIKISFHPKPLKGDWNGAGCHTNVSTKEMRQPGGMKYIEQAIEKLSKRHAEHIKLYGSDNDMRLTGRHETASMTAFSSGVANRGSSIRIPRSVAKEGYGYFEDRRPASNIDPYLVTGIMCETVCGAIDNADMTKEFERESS

[3] = target: T3, Emi2p (spotted on the yeast ProtoArray) (S. cerevisiae, UniProt Q04409 1-500)
T3 sequence (looked up): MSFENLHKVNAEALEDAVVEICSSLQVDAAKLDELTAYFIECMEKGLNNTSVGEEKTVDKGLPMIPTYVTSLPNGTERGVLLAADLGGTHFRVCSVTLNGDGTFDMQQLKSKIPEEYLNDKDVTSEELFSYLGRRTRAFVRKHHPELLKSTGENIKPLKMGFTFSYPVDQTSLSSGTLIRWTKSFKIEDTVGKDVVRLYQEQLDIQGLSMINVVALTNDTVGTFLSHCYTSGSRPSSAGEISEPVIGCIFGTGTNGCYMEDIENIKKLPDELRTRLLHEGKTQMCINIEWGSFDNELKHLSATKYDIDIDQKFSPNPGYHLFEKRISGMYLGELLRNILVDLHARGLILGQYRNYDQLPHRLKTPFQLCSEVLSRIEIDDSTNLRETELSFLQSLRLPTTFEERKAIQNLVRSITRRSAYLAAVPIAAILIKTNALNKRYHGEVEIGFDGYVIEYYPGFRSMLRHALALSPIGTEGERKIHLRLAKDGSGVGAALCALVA

Measured: binding result

B1: purified and biotinylated cytoplasmic domain of the Msb2p protein (HIS-Msb2p^CYT) (domain or fragment, S. cerevisiae, UniProt P32334 1207-1306, looked up)
chain: AFKYIIRRRIQSQEIIKNPEISSISSSEFGGEKNYNNEKRMSVQESITQSMRIQNWMDDSYYGHGLTNNDSTPTRHNTSSSIPKISRPIASQNSLGWNEV
modifications: biotinylated in vitro (sites not given)
binds: all assays above
